{"source": "patent US20060165686A1", "about": "(NOVIMMUNE S A, published 2006)", "binders": {"B1": {"name": "α-human TLR4 MAb 15C1 (murine 15C1 monoclonal antibody) (antibody, mouse IgG1, V domains shown)", "VH": "DVQLQESGPDLIQPSQSLSLTCTVTGYSITGGYSWHWIRQFPGNKLEWMGYIHYSGYTDFNPSLKTRISITRDTSKNQFFLQLNSVTTEDTATYYCARKDPSDGFPYWGQGTLVTVSA", "VL": "DIVMTQSPATLSVTPGDRVSLSCRASQSISDHLHWYQQKSHESPRLLIKYASHAISGIPSRFSGSGSGTDFTLSIKSVEPEDIGVYYCQNGHSFPLTFGAGTKLELK"}, "B2": {"name": "α-human MD-2 MAb 18H10 (murine 18H10 monoclonal antibody) (antibody, mouse IgG2b, V domains shown)", "VH": "QVQLQQSGADLVRPGALVKLSCTASGFNIKDSYIHWVKKRPEWGLEWIGWTDPENVNSIYDPRFQGKASITADTSSNTAFLQLTSLTSEDTAVYYCARGYNGVYYAMDYWGQGTSVTVSS", "VL": "QIVLTQSPSIMSASLGEEITLTCSASSSVIYMHWYQQKSGTSPKLLIYRTYNLASGVPSRFSGSGSGTFYSLTISSVEAEDAADYYCHQWSSFPYTFGGGTKLEIKR"}, "B3": {"name": "α-human TLR2 MAb T2.5 (antibody, V domains shown)", "VH": "QVQLQQSGPELVNPGASVKLSCKASGFTFTTYGINWVKQGPGQGLEWIGWIYPRDGSTNFNENFKDKAALTVDTSSSTAYMELHSLTSEDSAVYFCARLTGGTFLDWWGQGTTLTVSS", "VL": "DIVLTQSPASLAVSLGQRATISCRASESVEYYGTSLMQWYQQKPGQPPKLLIFGASNVESGVPVRFSGSGSGTDFSLNIHPVEEDDIVMYFCQQSRKLPWTFGGGTKLEIKR"}}, "assay_in_all_cases": "cell-based or functional assay", "key": {"[1]": {"target": "human toll-like receptor 4 (TLR4) (human, UniProt O00206 24-839)", "sequence (O00206 24-839 limits assumed)": "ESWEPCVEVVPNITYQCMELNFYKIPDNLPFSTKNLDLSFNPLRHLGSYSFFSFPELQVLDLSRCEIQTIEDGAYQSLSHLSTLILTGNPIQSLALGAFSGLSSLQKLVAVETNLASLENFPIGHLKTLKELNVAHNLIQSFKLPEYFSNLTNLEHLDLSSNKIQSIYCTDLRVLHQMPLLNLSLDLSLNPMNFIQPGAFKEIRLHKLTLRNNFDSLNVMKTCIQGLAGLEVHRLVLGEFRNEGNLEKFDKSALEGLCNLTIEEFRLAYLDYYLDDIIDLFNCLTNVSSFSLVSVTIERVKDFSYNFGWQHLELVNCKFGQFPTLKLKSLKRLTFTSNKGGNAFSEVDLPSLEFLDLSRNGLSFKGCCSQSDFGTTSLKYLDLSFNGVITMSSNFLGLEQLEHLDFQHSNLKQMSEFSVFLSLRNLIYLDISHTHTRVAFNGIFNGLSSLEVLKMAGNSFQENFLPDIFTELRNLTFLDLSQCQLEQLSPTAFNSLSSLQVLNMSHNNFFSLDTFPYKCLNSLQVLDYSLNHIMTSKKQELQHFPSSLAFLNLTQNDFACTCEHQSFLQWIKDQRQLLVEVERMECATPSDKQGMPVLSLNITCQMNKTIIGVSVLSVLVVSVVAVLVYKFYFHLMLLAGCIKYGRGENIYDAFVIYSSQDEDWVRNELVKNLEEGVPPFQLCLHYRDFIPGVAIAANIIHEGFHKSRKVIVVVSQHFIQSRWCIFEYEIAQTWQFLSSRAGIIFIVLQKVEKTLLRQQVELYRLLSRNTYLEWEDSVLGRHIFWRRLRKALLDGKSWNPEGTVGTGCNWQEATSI"}, "[2]": {"target": "T1, human MD-2 accessory protein (human, UniProt Q9Y6Y9 19-160)", "T1 chain": "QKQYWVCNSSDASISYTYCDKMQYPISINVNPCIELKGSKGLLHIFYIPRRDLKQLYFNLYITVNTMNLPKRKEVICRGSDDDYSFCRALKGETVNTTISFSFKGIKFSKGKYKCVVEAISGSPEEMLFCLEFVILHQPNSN"}, "[3]": {"target": "human toll-like receptor 2 (TLR2) (human, UniProt O60603 21-784)", "sequence (O60603 21-784)": "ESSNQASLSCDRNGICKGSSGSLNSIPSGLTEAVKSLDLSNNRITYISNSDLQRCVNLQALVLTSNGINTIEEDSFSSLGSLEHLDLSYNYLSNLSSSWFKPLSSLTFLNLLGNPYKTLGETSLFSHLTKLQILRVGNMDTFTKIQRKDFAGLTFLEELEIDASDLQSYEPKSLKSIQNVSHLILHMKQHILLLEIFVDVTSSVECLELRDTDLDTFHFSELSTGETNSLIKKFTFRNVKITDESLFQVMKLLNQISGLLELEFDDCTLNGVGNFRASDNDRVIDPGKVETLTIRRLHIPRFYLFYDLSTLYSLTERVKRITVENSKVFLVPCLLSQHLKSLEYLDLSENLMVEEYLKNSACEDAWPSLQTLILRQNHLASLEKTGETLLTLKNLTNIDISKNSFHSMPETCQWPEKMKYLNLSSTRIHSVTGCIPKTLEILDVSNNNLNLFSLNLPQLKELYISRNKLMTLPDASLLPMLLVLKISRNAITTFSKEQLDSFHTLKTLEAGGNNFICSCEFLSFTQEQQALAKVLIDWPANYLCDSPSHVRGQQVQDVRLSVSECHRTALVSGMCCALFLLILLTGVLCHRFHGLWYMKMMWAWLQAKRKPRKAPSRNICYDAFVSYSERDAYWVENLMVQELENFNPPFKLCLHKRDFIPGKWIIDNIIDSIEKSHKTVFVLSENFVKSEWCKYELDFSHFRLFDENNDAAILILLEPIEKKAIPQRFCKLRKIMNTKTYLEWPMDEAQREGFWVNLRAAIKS"}}, "data": [{"binder": "B1", "values": [{"measurement": "IL-6 production induced by pseudomonas LPS in human whole blood", "setting": "[1]", "result": "~50", "unit": "%"}]}, {"binder": "B2", "values": [{"measurement": "IL-6 production induced by pseudomonas LPS in human whole blood", "setting": "[2]", "result": "~50", "unit": "%"}]}, {"binder": "B3", "values": [{"measurement": "IL-6 production induced by pseudomonas LPS in human whole blood", "setting": "[3]", "result": "~50", "unit": "%"}]}]}
